From US12441790B2, “Binding proteins to the human thrombin receptor, PAR4” (MONASH UNIVERSITY, priority 2017, dated 2025)
“Also recorded” adds a separate entry of the source.

Key:
native PAR4 peptide = molecular target: T1, native PAR4 peptide (Homo sapiens, UniProt Q96RI0); test: ELISA screening of hybridoma supernatants, native vs KLH-linked PAR4 peptide; format: binding; settings: first screening; second sub-clone
T1 construct: host or cells: synthetic peptide
Method: 96-well ELISA plates were coated with 50 μl of antigen diluted to a concentration of 4 μg/ml in coating buffer (0.1M Sodium Hydrogen Carbonate (NaHCO3) (Merck, #1.06329.0500)). Plates were incubated overnight at 4° C.
Wells were then washed with an automated plate washer (300 μl 1×PBS, 3 times). The wells were blocked with 200 μl of blocking buffer (3% BSA/1×PBS (BSA: (Sigma, #1001647742)) for 1 hour at room temperature followed by washing as above.
50 μl of undiluted hybridoma cell culture supernatant was added into appropriate wells and incubated at room temperature for 1 hour followed by washing as above. […] Wells were washed as above. A set of substrate tablets (1×silver, 1×gold) into 20 ml of ddH20 by shaking vigorously on the thermomixer for 6 mins at room temperature. 50 μl of substrate ([…]™ p-Nitrophenyl phosphate Tablets (Sigma-Aldrich, N2770-50SET)) was added into each well and incubated for 20-25 mins at room temperature. 50 μl of STOP solution (2M Sodium Hydroxide, Solid (NaOH) (Merck, Cas #1310-73-2)) was added into each well to stop the reaction. Absorbance was read at 405 nm immediately after adding STOP solution with the ELISA reader, using the ‘RdrOle4’ software.

[1] = tested on: PAR4-120Ala and PAR4-120Thr variants; test: PAR4 thrombin cleavage assay on PAR4 variants in HEK293T cells; format: cell-based, human; settings: for inhibition of thrombin cleavage of Ala120 and Thr120 PAR4 variants: pre-incubation 1, 10 or 100 μg/ml before thrombin
Method: 1×10^6 HEK293T cells (in Dulbecco's modified eagle's medium+10% foetal calf serum) were seeded onto 12-well plates 24 hours before transfection. When confluent, they were transiently transfected with 1 μg of DNA from one of the PAR4 variants (expression vectors pBJ-FLAG-PAR4-120A-296F or pBJ-FLAG-PAR4-120T-296F; Edelstein et al (2014) Blood 124(23):3450-8) plus 4 μL of Lipofectamine 2000, as per manufacturer's instructions. Forty-eight hours after transfection, cells were harvested and washed twice with PBS, then resuspended to a count of 1×10^6/mL. Cells (50 μL assays/0.5×10^5 cells per condition) were then pre-treated with either 1, 10 or 100 μg/mL of 5RC3 or sub-clone 5A.RC3.F10b.H4b or 100 μg/mL matched Isotype control (mouse IgG1) for 15 minutes at 37° C. Cells were then stimulated with 2 U/mL of thrombin for 10 minutes. The reaction was stopped by the addition of 4 U/mL hirudin. Cells were then washed once and resuspended with PBS containing a 1:200 dilution of FITC anti-FLAG antibody (Sigma, clone M2) and incubated for 1 hour at room temperature in the dark. Cells were then fixed with 1% paraformaldehyde (final concentration) and read on a FACSCalibur flow cytometer to determine % of FL1/FITC-Positive events. Data were normalised against the resting sample (100%, no thrombin treatment).
In order to determine whether the anti-PAR4 clones could inhibit the effects of thrombin on PAR4 cleavage, in vitro inhibition assays were performed. HEK293T cells were transiently transfected with the PAR4-120Ala (A) or PAR4-120Thr (T) variants which contained a FLAG epitope upstream of the thrombin cleavage site. Cleavage of PAR4 by thrombin was measured by loss of Flag tag from the PAR4 expressing HEK293 cells using flow cytometry.
Cells were stimulated with increasing doses of thrombin (0.1-2 U/ml) and the amount of thrombin cleavage was measured as a loss of FLAG epitope using a FITC-conjugated anti-FLAG antibody by flow cytometry.

hPAR4 peptide [2] = molecular target: T2, hPAR4 peptide (Homo sapiens, UniProt Q96RI0); test: ELISA of purified mAbs on hPAR4 peptide; format: binding; settings: dilutions of purified mAbs
T2 construct: host or cells: synthetic peptide
T2 sequence (Q96RI0 35-54 limits assumed): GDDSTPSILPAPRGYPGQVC
Method: (§1) The kinetics of the binding interaction between the mAbs and hPAR4 was measured using Surface Plasmon Resonance (SPR; Biacore) by two different methods: 1. Anti-mouse Fc mAb capture method and 2. Streptavidin (SA) chip to capture biotinylated peptide. The ka(on) rate and kd(off) rates and KD were measured and fitted to a Langmuir model using the Biacore evaluation software.
The experiment was completed with purified mAbs diluted in PBS instead of hybridoma supernatants.
The reactivity of seven purified anti-hPAR4 mAbs was analysed by ELISA (see Table 4).

hPAR4 peptide [3] = molecular target: T2, hPAR4 peptide; test: mAb capture SPR (Biacore, anti-mouse Fc capture); format: binding
Method: Biacore analysis was performed on a Biacore T200 using two different methods either an anti-mouse Fc capture approach or using a similar method as described above using the ProteoOn system.
A series S CM5 sensor chip was activated with standard EDC/NHS amine coupling chemistry using the manufacturers recommended protocol with Goat anti-mouse IgG Fc. Anti-hPAR4 mAbs were captured at 1-2 ug/ml for 2 minutes at 10 ul/minute on flow cell 2 (FC2) and flow cell 1 (FC1) was used as a reference channel. […] Blank injections of buffer alone were also performed. All injections were performed in duplicate and in a random order. After each capture/injection/dissociation cycle the chip was regenerated with a 30 second injection of 0.1M Glycine pH2.0.
For the mAb capture method low levels of ligand mAb and analyte hPAR4 were used in an attempt to produce a 1:1 binding interaction, this method has been used successfully to measure kinetics and affinity KD's (Kamat V and Rafique A (2017) Analytical Biochemistry 530:75-86), despite using a whole IgG.
as §1

human isolated platelets = test: Platelet phosphatidylserine exposure (annexin V binding); format: cell-based; settings: pre-treatment 5 min; regardless of donor genotype
Method: Platelet surface phosphatidylserine (PS) exposure was determined by measuring annexin V binding. Human isolated platelets (5×10^7/ml) were pre-treated with 5A.RC3 (5 mins) at the concentrations indicated and were incubated with Alexa Fluor 488-conjugated annexin-V (1:100) prior to stimulation with thrombin. After stimulation, platelets were resuspended in modified Tyrode's buffer for flow cytometry analysis (FACSCalibur, BD Biosciences).
Pro-coagulant activity in isolated human platelets was examined by measuring phosphatidylserine (PS) exposure in response to stimulation with PAR4-AP or thrombin (1 U/ml) The percentage of annexin V positive cells was measured. The platelets were pre-incubated with 5A.RC3 for 5 mins. […] The 10 min (final data point) is shown for simplicity.

[4] = tested on: hPAR4 peptides 1-9, 8-15 and 11-20; test: Epitope mapping ELISA with overlapping hPAR4 peptides; format: binding, human; settings: peptides coated at 10 ug/ml
Method: Briefly the peptides were coated onto a Nunc maxisorp ELISA plate at 10 ug/ml overnight in coating buffer (0.1M sodium carbonate pH8.0). Purified mAbs diluted in PBS were used in place of supernatant.

Fold binding native vs KLH-linked PAR4 peptide (native PAR4 peptide): 19.3 | reactivity with hPAR4 peptide by ELISA (hPAR4 peptide [2]): very similar binding curves | ka (hPAR4 peptide [3]): 330000 M⁻¹ s⁻¹ | kd (hPAR4 peptide [3]): 0.00487 s⁻¹
B1: 5A.RC3: anti-PAR4 monoclonal antibody, IgG2a/K, VH SEQ ID NO:11 and VL SEQ ID NO:12 (antibody, V domains shown)
VH: QVQLVESGGGVVQPGRSLRLSCAASGFTLSNYGMHWVRQAPGKGLEWVSVIWYDGSNKHYADSVKGRFTISRDNSKNTLYLQMNSLRAEDTAVYYCARESIVEVLPPFDYWGQGTLVTVSS
VL: KIVLTQSPGTLSLSPGERVTLSCRASQRVRNNYLAWFQQKPGQAPRLFIYGASSRATGIPDRFSGSGSGTDFIFTISRLEPEDFAVYYCQQYGNSYTFGQGTKLEIK
modifications: VH of 5A.RC3; VL of 5A.RC3
reversal of inhibition by the immunising peptide [1]: reversed | inhibition of thrombin cleavage of Ala120 and Thr120 PAR4 variants [1]: near complete inhibition of thrombin cleavage; also recorded: significantly inhibited thrombin induced PAR4 cleavage | inhibition of thrombin cleavage of Ala120 and Thr120 PAR4 variants ([1]; listed as 5A.RC3.H4b): effectively inhibited cleavage of PAR4 expressed on the surface of HEK293 cells in a dose dependent manner | inhibition of thrombin-induced phosphatidylserine exposure (human isolated platelets): dose-dependently inhibited thrombin-induced phosphatidylserine exposure; also recorded: inhibited thrombin-induced phosphatidylserine exposure in a dose dependent manner | hPAR4 peptide the mAb reacted with [4]: amino acid residues 8-15
